One assay concerns the target T1, hEGFR-Fc-biotin (human, UniProt P00533 25-645, biotin-labelled with EZ-LINK Sulfo-NHS-LC-Biotin).
T1 construct: Bought (R&D systems); Detection antigen of the sandwich; not shown: Fc of the bought fusion protein
Description: sandwich ELISA with mis-matched antigens. How it is done:
(§1) The dual-binding activity of the same synthesized IgG BsAbs is assessed using a sandwich ELISA. […] Sandwich ELISAs are developed for detecting the four different BsAb test articles; one for detecting anti-HER-2/anti-EGFR BsAb activity, one for detecting anti-HER-2/anti-LTPR BsAb activity, one for detecting anti-cMET/anti-EGFR BsAb activity and one for detecting anti-cMET/anti-LTPR BsAb activity. For all ELISAs, clear 96-well round bottom high binding Immulon microtiter plates (Greiner bio-one, cat #650061) are coated overnight at 2-8° C. with 50 μL/well 1 μg/mL hHER-2-Fc or 1 μg/mL hHGFR(cMet)-Fc (both from R&D systems) in a 50 mM Na2CO3 pH 8.3 buffer. The plates are washed 4 times with PBST and blocked with 200 μL/well casein buffer (Pierce) for 1 hr at room temperature. The plates are then washed 4 times with PBST and the parental IgG controls or BsAb IgG test articles are added at 50 μL/well and […] and serially diluted 1:3 down the plate. The controls and test articles are incubated on the plate for 1 hr at room temperature. The plates are then washed 4 times with PBST and 50 μL/well 1 μg/mL hEGFR-Fc-biotin or hLTβR-Fc-biotin (both from R&D systems) is added for 1 hr at room temperature. The plates are then washed 4 times with PBST followed by the addition of a 50 μL/well streptavidin-AP (Jackson Immunoresearch Labs Cat. #016-050-084) diluted 1:1000 in casein buffer. The streptavidin-AP is incubated in each well for 1 hr at room temperature. The plates are then washed 4 times with PBST and 100 μL/well 1-step PNPP substrate is added (Thermo Scientific Cat. #37621). After approximately 5-15 minutes, plates are read for Absorbance (405 nm) using a SPECTRAMAX® UV plate reader (Molecular Devices). Biotin-labeling of the hEGFR-Fc and hLTβR-Fc proteins is performed using EZ-LINK™ Sulfo-NHS-LC-Biotin (Thermo Scientific Cat. #21327) according to the manufacturer's protocol.
(In general: An ELISA detects its analyte on a solid surface through an enzyme-linked reagent.)

The target of a further assay is T2, hHER-2-Fc (human, UniProt P04626 23-652).
T2 construct: Bought (R&D systems); Coated on the plate; not shown: Fc of the bought fusion protein
Description: sandwich ELISA with mis-matched antigens. How it is done:
as §1

B1: MetMAb × BHA10 IgG BsAb, CH1/Cκ Wild-Type (AB / H4DR variable domain designs, 7.8.60 CH3, N297Q) (bispecific antibody)
heavy 1: EVQLVESGGGLVQPGGSLRLSCAASGYTFTSYWLHWVRKAPGKGLEWVGMIDPSNSDTRFNPEFKDRFTISADTSKNTAYLQMNSLRAEDTAVYYCATYRSYVTPLDYWGQGTLVTVSSASTKGPSVFPLAPSSKSTSGGTAALGCLVKDYFPEPVTVSWNSGALTSGVHTFPAVLQSSGLYSLSSVVTVPSSSLGTQTYICNVNHKPSNTKVDKKVEPKSCDKTHTCPPCPAPELLGGPSVFLFPPKPKDTLMISRTPEVTCVVVDVSHEDPEVKFNWYVDGVEVHNAKTKPREEQYQSTYRVVSVLTVLHQDWLNGKEYKCKVSNKALPAPIEKTISKAKGQPREPQVYTLPPSREEMTDNQVSLTCLVKGFYPSDIAVEWESNGQPENNYKTTPPVLMSDGSFFLASKLTVDKSRWQQGNVFSCSVMHEALHNHYTQKSLSLSPG
light 1: RIQMTQSPSSLSASVGDRVTITCKSSQSLLYTSSQKNYLAWYQDKPGKAPKLLIYWASTRESGVPSRFSGSGSGTDFTLTISSLQPEDFATYYCQQYYAYPWTFGQGTKVEIKRTVAAPSVFIFPPSDEQLKSGTASVVCLLNNFYPREAKVQWKVDNALQSGNSQESVTEQDSKDSTYSLSSTLTLSKADYEKHKVYACEVTHQGLSSPVTKSFNRGEC
heavy 2: QVQLVQSGAEVKKPGSSVKVSCKASGYTFTTYYLHWVRYAPGQGLEWMGWIYPGNVHAQYNEKFKGRVTITADKSTSTAYMELSSLRSEDTAVYYCARSWEGFPYWGRGTTVTVSSASTKGPSVFPLAPSSKSTSGGTAALGCLVKDYFPEPVTVSWNSGALTSGVHTFPAVLQSSGLYSLSSVVTVPSSSLGTQTYICNVNHKPSNTKVDKKVEPKSCDKTHTCPPCPAPELLGGPSVFLFPPKPKDTLMISRTPEVTCVVVDVSHEDPEVKFNWYVDGVEVHNAKTKPREEQYQSTYRVVSVLTVLHQDWLNGKEYKCKVSNKALPAPIEKTISKAKGQPRRPRVYTLPPSREEMTKNQVSLVCLVKGFYPSDIAVEWESNGQPENNYKTTPPVLDSDGSFFLYSVLTVDKSRWQQGNVFSCSVMHEALHNHYTQKSLSLSPG
light 2: DIQMTQSPSSLSASVGDRVTITCKASQNVGINVAWYQRKPGDAPKSLISSASYRYSGVPSRFSGSGSGTDFTLTISSLQPEDFATYFCQQYDTYPFTFGQGTKVEIKRTVAAPSVFIFPPSDEQLKSGTASVVCLLNNFYPREAKVQWKVDNALQSGNSQESVTEQDSKDSTYSLSSTLTLSKADYEKHKVYACEVTHQGLSSPVTKSFNRGEC
notes: Human IgG1; Tested as protein G purified product of four-plasmid co-expression; also called MetMAb × BHA10 Wild-Type
B1: the binding result with hEGFR-Fc-biotin and with hHER-2-Fc was “no binding” each time.

These data come from US20240043552A1 (Eli Lilly, published 2024).
